The results in this text go back to the supplement of paper PMC9112550, “Optimization of the antimicrobial peptide Bac7 by deep mutational scanning” (BMC Biology, 2022).

This data set relates to Escherichia coli TOP10. The data set is described as follows: shrunken log2 fold change of peptide-encoding DNA abundance (4.5 h post-induction vs induction); higher = less antimicrobial activity (less host growth inhibition). The settings on record: time post-induction: 4.5 h; library: site-saturation at positions 5, 18, 19, 20.
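Also: peptides expressed intracellularly from a pBAD plasmid library in pooled LB shake-flask culture, induced with 0.3% L-arabinose, DNA abundance read by NGS, three biological replicates, DESeq2 with apeglm shrinkage.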

Take RRIRERPPRLPRPRPRPWSFPRP: the “shrunken log2 fold change” value was -0.0191.
In the case of RRIRQRPPRLPRPRPRPKLYPRP it was -0.0149; in that of RRIRMRPPRLPRPRPRPWTSPRP, 0.0303; in that of RRIRYRPPRLPRPRPRPPSPPRP, 0.398.
Regarding RRIRSRPPRLPRPRPRPIKAPRP, the “shrunken log2 fold change” value was determined as 0.0326.
In the case of RRIRGRPPRLPRPRPRPIDLPRP it was 0.00416.
On to RRIRPRPPRLPRPRPRPFYAPRP, for which the “shrunken log2 fold change” value was found to be 0.02.
In the case of RRIRKRPPRLPRPRPRPICIPRP it was 0.163; in that of RRIRFRPPRLPRPRPRPHHYPRP, -0.681.
RRIRWRPPRLPRPRPRPIGRPRP: the “shrunken log2 fold change” value was -0.0158.
In the case of RRIRCRPPRLPRPRPRPVYEPRP it was -0.342; in that of RRIRPRPPRLPRPRPRPLHGPRP, 0.0827; in that of RRIRDRPPRLPRPRPRPYYMPRP, -0.399.
With RRIRCRPPRLPRPRPRPYMFPRP, the “shrunken log2 fold change” value is -1.01.
The same measure for RRIRNRPPRLPRPRPRPVRTPRP: 0.296; for RRIRGRPPRLPRPRPRPANWPRP: 0.731.
Turning to RRIRPRPPRLPRPRPRPLKIPRP, the “shrunken log2 fold change” value is -0.169.
The same measure for RRIRCRPPRLPRPRPRPHVAPRP: -0.0172.
With RRIRQRPPRLPRPRPRPPFKPRP, the “shrunken log2 fold change” value is -0.0455.
In the case of RRIRVRPPRLPRPRPRPASPPRP it was 0.102.
Turning to RRIRFRPPRLPRPRPRPFHCPRP, the “shrunken log2 fold change” value was -0.102.
In the case of RRIRVRPPRLPRPRPRPQSQPRP it was -0.214.
As to RRIRARPPRLPRPRPRPMMCPRP, the “shrunken log2 fold change” value was 0.544.
With RRIRPRPPRLPRPRPRPDYCPRP, the “shrunken log2 fold change” value is -0.367.
In the case of RRIRARPPRLPRPRPRPGSIPRP it was -0.283; in that of RRIRVRPPRLPRPRPRPHEVPRP, -0.0408.
Regarding RRIRTRPPRLPRPRPRPLDVPRP, the “shrunken log2 fold change” value was -0.594.
In the case of RRIRRRPPRLPRPRPRPVTEPRP it was 0.285; in that of RRIRPRPPRLPRPRPRPIAFPRP, -0.00102.
In the case of RRIRGRPPRLPRPRPRPTWNPRP, the “shrunken log2 fold change” value came to 0.359.
The same measure for RRIRIRPPRLPRPRPRPQPRPRP: 0.343; for RRIRNRPPRLPRPRPRPSLAPRP: 0.0683.
The same measure for RRIRMRPPRLPRPRPRPLWSPRP: -0.0373.
On to RRIRWRPPRLPRPRPRPGGNPRP, for which the “shrunken log2 fold change” value came out at 0.0972.
For RRIRDRPPRLPRPRPRPLIYPRP, the “shrunken log2 fold change” value was -0.653.
The same measure for RRIRDRPPRLPRPRPRPMAHPRP: -0.00211.
For RRIRPRPPRLPRPRPRPTIEPRP, the “shrunken log2 fold change” value was -0.0748.
In the case of RRIRMRPPRLPRPRPRPKFQPRP it was 0.549.
Consider RRIRARPPRLPRPRPRPEDPPRP, for which the “shrunken log2 fold change” value amounted to 0.823.
The same measure for RRIRYRPPRLPRPRPRPFVGPRP: -0.193.
Take RRIRCRPPRLPRPRPRPVHAPRP: the “shrunken log2 fold change” value stood at 0.065.
The same measure for RRIRPRPPRLPRPRPRPHNDPRP: -0.566; for RRIRRRPPRLPRPRPRPLKGPRP: -0.0966; for RRIRARPPRLPRPRPRPNIQPRP: -0.122.
As for RRIRIRPPRLPRPRPRPAYFPRP, the “shrunken log2 fold change” value was -0.411.
Regarding RRIRDRPPRLPRPRPRPFRHPRP, the “shrunken log2 fold change” value was -0.125.
In the case of RRIRCRPPRLPRPRPRPHQFPRP it was 0.0354; in that of RRIRIRPPRLPRPRPRPGFSPRP, -0.0749.
As to RRIRFRPPRLPRPRPRPPINPRP, the “shrunken log2 fold change” value is -0.406.
RRIRDRPPRLPRPRPRPHIIPRP: the “shrunken log2 fold change” value is -1.27.
Take RRIRSRPPRLPRPRPRPLLYPRP: the “shrunken log2 fold change” value is -0.162.
The same measure for RRIRWRPPRLPRPRPRPGRCPRP: 0.897; for RRIRNRPPRLPRPRPRPMNPPRP: -0.235; for RRIRLRPPRLPRPRPRPLHWPRP: 1.5.
Regarding RRIRYRPPRLPRPRPRPTHGPRP, the “shrunken log2 fold change” value was -0.1.
In the case of RRIRNRPPRLPRPRPRPGHAPRP it was 0.32; in that of RRIRGRPPRLPRPRPRPTLRPRP, 0.793; in that of RRIRVRPPRLPRPRPRPFYWPRP, -0.103.
With RRIRKRPPRLPRPRPRPCQYPRP, the “shrunken log2 fold change” value is -0.26.
The same measure for RRIRIRPPRLPRPRPRPNVKPRP: -0.163.
With RRIRWRPPRLPRPRPRPCQNPRP, the “shrunken log2 fold change” value is -0.118.
Take RRIRGRPPRLPRPRPRPHHFPRP: the “shrunken log2 fold change” value was -0.0789.
The same measure for RRIRHRPPRLPRPRPRPYHTPRP: -0.132.
Take RRIRERPPRLPRPRPRPTWSPRP: the “shrunken log2 fold change” value was -0.268.
In the case of RRIRTRPPRLPRPRPRPWKIPRP it was -0.0703.
The same measure for RRIRSRPPRLPRPRPRPIVKPRP: -0.143.
The same measure for RRIRWRPPRLPRPRPRPMLYPRP: 0.0136.
As for RRIRYRPPRLPRPRPRPRCFPRP, the “shrunken log2 fold change” value was -0.152.
Regarding RRIRQRPPRLPRPRPRPFVDPRP, the “shrunken log2 fold change” value is -0.00879.
Take RRIRKRPPRLPRPRPRPQCWPRP: the “shrunken log2 fold change” value is 0.00452.
The same measure for RRIRIRPPRLPRPRPRPNIQPRP: -1.03; for RRIRRRPPRLPRPRPRPDSLPRP: 0.0868; for RRIRERPPRLPRPRPRPLFEPRP: -0.0266.
In the case of RRIRDRPPRLPRPRPRPLGQPRP it was 0.0401; in that of RRIRTRPPRLPRPRPRPDGQPRP, 0.0697.
As for RRIRARPPRLPRPRPRPGHGPRP, the “shrunken log2 fold change” value was 0.377.
As to RRIRARPPRLPRPRPRPLYTPRP, the “shrunken log2 fold change” value was -0.0964.
The same measure for RRIRCRPPRLPRPRPRPMGPPRP: 0.128; for RRIRTRPPRLPRPRPRPKYKPRP: -0.407.
The same measure for RRIRPRPPRLPRPRPRPEIHPRP: -0.536; for RRIRIRPPRLPRPRPRPAPSPRP: 0.444; for RRIRKRPPRLPRPRPRPFSRPRP: 0.238.
The same measure for RRIRMRPPRLPRPRPRPNRKPRP: -0.0954; for RRIRKRPPRLPRPRPRPHYPPRP: -0.16.
For RRIRDRPPRLPRPRPRPTGEPRP, the “shrunken log2 fold change” value turned out to be 0.119.
The same measure for RRIRPRPPRLPRPRPRPCQYPRP: 0.0594; for RRIRSRPPRLPRPRPRPSAKPRP: 2.05; for RRIRRRPPRLPRPRPRPEENPRP: 0.157.
With RRIRHRPPRLPRPRPRPITFPRP, the “shrunken log2 fold change” value is -0.0514.
For the sequence RRIRPRPPRLPRPRPRPSLQPRP, the “shrunken log2 fold change” value was determined as 0.0128.
The same measure for RRIRQRPPRLPRPRPRPIFLPRP: 0.805.
In the case of RRIRVRPPRLPRPRPRPMSGPRP it was -0.0469; in that of RRIRQRPPRLPRPRPRPKCVPRP, -0.018; in that of RRIRSRPPRLPRPRPRPASAPRP, 0.243.
In the case of RRIRMRPPRLPRPRPRPNVVPRP it was -0.0912; in that of RRIRCRPPRLPRPRPRPNLEPRP, -0.267.
As to RRIRTRPPRLPRPRPRPRNTPRP, the “shrunken log2 fold change” value is -0.209.
As to RRIRARPPRLPRPRPRPIKSPRP, the “shrunken log2 fold change” value stood at 0.226.
The same measure for RRIRDRPPRLPRPRPRPGCKPRP: 0.0398.
RRIRMRPPRLPRPRPRPGKGPRP: the “shrunken log2 fold change” value worked out at 0.0403.
In the case of RRIRMRPPRLPRPRPRPNWSPRP it was -0.18; in that of RRIRLRPPRLPRPRPRPKYVPRP, -0.126.
The same measure for RRIRRRPPRLPRPRPRPSYYPRP: -0.0156; for RRIRVRPPRLPRPRPRPPIKPRP: -0.151.
The same measure for RRIRARPPRLPRPRPRPYEKPRP: -0.201; for RRIRDRPPRLPRPRPRPYWPPRP: -0.547.
Take RRIRDRPPRLPRPRPRPWHNPRP: the “shrunken log2 fold change” value was -0.144.
The same measure for RRIRQRPPRLPRPRPRPIFVPRP: -0.217; for RRIRERPPRLPRPRPRPLGNPRP: -0.477; for RRIRIRPPRLPRPRPRPMTSPRP: -0.0513.
Consider RRIRQRPPRLPRPRPRPTQPPRP, for which the “shrunken log2 fold change” value stood at 0.356.
In the case of RRIRLRPPRLPRPRPRPGLHPRP it was -0.401; in that of RRIRVRPPRLPRPRPRPVRGPRP, 0.767.
The same measure for RRIRWRPPRLPRPRPRPMIQPRP: -0.000914; for RRIRARPPRLPRPRPRPKTFPRP: -0.0543.
In the case of RRIRMRPPRLPRPRPRPDNPPRP it was 0.0534.
With RRIRVRPPRLPRPRPRPPPFPRP, the “shrunken log2 fold change” value was determined as 0.375.
The same measure for RRIRLRPPRLPRPRPRPMNEPRP: -0.00493.
The same measure for RRIRNRPPRLPRPRPRPRVCPRP: 0.205.
The same measure for RRIRHRPPRLPRPRPRPDARPRP: 0.133; for RRIRHRPPRLPRPRPRPWGIPRP: -0.0176.
With RRIRWRPPRLPRPRPRPPSHPRP, the “shrunken log2 fold change” value turned out to be 0.163.
The same measure for RRIRRRPPRLPRPRPRPFMKPRP: -0.213; for RRIRERPPRLPRPRPRPLKMPRP: -0.175.
The same measure for RRIRKRPPRLPRPRPRPCHCPRP: -0.241.
